The record followed here is paper PMC5261807 (2017).

Assay [1] concerns the target T1, Bdf1 bromodomain 2 (GST-tagged, WT) (Saccharomyces cerevisiae (strain ATCC …, UniProt P35817)).
T1 chain: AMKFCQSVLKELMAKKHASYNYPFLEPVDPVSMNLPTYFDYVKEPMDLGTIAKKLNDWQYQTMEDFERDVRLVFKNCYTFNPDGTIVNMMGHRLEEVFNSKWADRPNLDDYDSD
Description: histone peptide array probed with recombinant GST-bromodomain, signal normalised to myc peptide control.

Assay [2] addresses T2, Bdf1 bromodomain 1 (GST-tagged, WT) (Saccharomyces cerevisiae (strain ATCC …, UniProt P35817)).
T2 chain: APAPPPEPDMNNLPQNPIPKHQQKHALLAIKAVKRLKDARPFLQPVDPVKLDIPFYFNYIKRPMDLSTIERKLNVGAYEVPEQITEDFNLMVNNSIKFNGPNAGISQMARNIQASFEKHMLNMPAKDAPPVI
The assay is described as above.

Non-standard residues stand in square brackets, D forms with d. Primed or numbered codes have the meaning given here. No end group written: not given here. Me2s″ = symmetric dimethylarginine (Rme2s); Arg(Me2a) = CN(C)C(=N)NCCC[C@H](N)C(=O)O; Lys(Me3) = C[N+](C)(C)CCCC[C@H](N)C(=O)O; Arg(Me2s) = CN=C(NC)NCCC[C@H](N)C(=O)O; pT = C[C@@H](OP(=O)(O)O)[C@H](N)C(=O)O; Lys(Me2) = CN(C)CCCC[C@H](N)C(=O)O; pS = N[C@@H](COP(=O)(O)O)C(=O)O; Lys(Me) = CNCCCC[C@H](N)C(=O)O

B1: H3 16-35 (peptide)
chain: PRKQLATKAARK(Me)[pS]APATGG
Turning to B1, the figures for the binding score in assay [1] and in assay [2] were 0 and 0.0151, respectively.

B2: H3 1-19 (peptide)
chain: ARTKQTARKSTGGKAPRKQ
modifications: A R T Kme1 Q T A Rme2s Kme3 S T G G K A P R K Q
With B2, the binding score in assay [1] and in assay [2] was 0 in each case.

B3: H3 1-19 (peptide)
chain: ARTK(Ac)QTA[Arg(Me2s)][Lys(Me)]STGGKAPRKQ
For B3, the binding score in assay [1] stood at 0.00148; in assay [2] it was 0.0242.

B4: H4 1-19 (peptide)
chain: SGRGKGGKGLGKGGAKRHR
modifications: S G R G K G G K G L G Kac G G A K R H R
Turning to B4, the values for the binding score in assay [1] and in assay [2] were 0.0271 and 0.00448, respectively.

B5: H3 1-19 (peptide)
chain: ARTKQTARKSTGGKAPRKQ
modifications: A R T K Q T A R Kme3 S T G G Kac A P R K Q
For B5, the binding score in assay [1] was determined as 0.0479; in assay [2] it was 0.0133.

B6: H3 1-19 (peptide)
chain: A[Arg(Me2a)][pT]K(Me)QTARKSTGGKAPRKQ
Turning to B6, the binding score came to 0.00207 in assay [1] and 0.00412 in assay [2].

B7: H4 1-19 (peptide)
chain: SGRGKGGKGLGKGGAKRHR
modifications: S G Rme2s G K G G K G L G K G G A K R H R
For the molecule B7, the binding score came out at 0 in assay [1] and 0.00646 in assay [2].

B8: H3 1-19 (peptide)
chain: ARTKQTA[Arg(Me2a)][Lys(Me3)]S[pT]GGKAPRKQ
As to B8, the binding score in assay [1] and in assay [2] was 0 throughout.

B9: H3 1-19 (peptide)
chain: ARTKQTARKSTGGKAPRKQ
modifications: A R T K Q T A R K pS T G G Kac A P R K Q
For the molecule B9, the binding score in assay [1] came to 0.115; in assay [2], 0.0299.

B10: H3 1-19 (peptide)
chain: ARTKQTARKSTGGKAPRKQ
modifications: A R T K Q T A R Kme3 pS T G G K A P R K Q
For the molecule B10, the binding score in assay [1] and in assay [2] was 0 each time.

B11: H3 1-19 (peptide)
chain: ARTKQTARKSTGGKAPRKQ
modifications: A R T K Q T A Rme2a Kme2 S pT G G K A P R K Q
B11: the binding score was 0 in assay [1] and 0.00323 in assay [2].

B12: H3 16-35 (peptide)
chain: PRKQLATKAAR(Me2s″)K[pS]APATGG
As to B12, the binding score in assay [1] and in assay [2] was 0 throughout.

B13: H2a 1-19 (peptide)
chain: SGRGKQGGKARAK(Ac)AKSRSS
Regarding B13, the figures for the binding score in assay [1] and in assay [2] were 0.0115 and 0.00932, respectively.

B14: H3 16-35 (peptide)
chain: PRKQLATKAA[Arg(Me2s)][Lys(Me2)][pS]APATGG
Consider B14, for which the binding score worked out at 0 in assay [1] and 0.017 in assay [2].

B15: H3 16-35 (peptide)
chain: PRKQLATKAAR[Lys(Me)]SAPATGG
Take B15: the binding score in assay [1] and in assay [2] was 0 each time.

B16: H3 1-19 (peptide)
chain: A[Arg(Me2s)]T[Lys(Me)]QTA[Arg(Me2s)][Lys(Me2)]STGGKAPRKQ
For the molecule B16, the binding score in assay [1] stood at 0; in assay [2] it was 0.00197.

B17: H3 1-19 (peptide)
chain: ARTKQTARKSTGGKAPRKQ
modifications: A R T K Q T A R K pS T G G K A P R K Q
For B17, the binding score in assay [1] and in assay [2] was 0 each time.
